In article PMC7859441:
Starred links: 1 amine or outer side, 2 acyl side, 3 side chain; linkers in the order of their positions; H or OH if unused. Non-standard residues stand in square brackets, D forms with d. No end group written: not given here. βAsp = O=C(O)[C@H](CC(=O)[*:2])N[*:1]

Experiments:
[1] = target: zebrafish Pcmt (protein L-isoaspartyl methyltransferase) (zebrafish) (UniProt Q92047)
[2] = target: zebrafish Pcmtl (protein L-isoaspartyl methyltransferase paralog) (zebrafish)

UniProt Q92047, sequence (Q92047 whole entry): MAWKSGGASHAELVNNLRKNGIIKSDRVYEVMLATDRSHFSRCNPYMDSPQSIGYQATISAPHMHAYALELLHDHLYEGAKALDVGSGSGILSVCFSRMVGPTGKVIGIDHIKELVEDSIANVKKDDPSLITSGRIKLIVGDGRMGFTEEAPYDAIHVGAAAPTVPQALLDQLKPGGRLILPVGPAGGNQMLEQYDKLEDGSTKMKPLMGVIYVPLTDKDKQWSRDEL

KM for the methyl acceptor peptide substrate, isoaspartyl methyltransferase activity (methanol vapor diffusion assay, 30°C, 0.2 M Bis-Tris pH 6.0, 14.5 μM SAM, 0.2–60 μM peptide) [1]: 4.2 μM | KM for the methyl acceptor peptide substrate, isoaspartyl methyltransferase activity (methanol vapor diffusion assay, 30°C, 0.2 M Bis-Tris pH 6.0, 14.5 μM SAM, 0.2–60 μM peptide) [2]: 3.6 μM
Binder: KASA[βAsp]LAKY [isoaspartyl substrate peptide KASAisoDLAKY]
